These results are taken from patent US20080241109A1.

This test has as its target Fas receptor (human) (UniProt P25445). Briefly: cell-based or functional assay.
Sequence of UniProt P25445 (P25445 26-335): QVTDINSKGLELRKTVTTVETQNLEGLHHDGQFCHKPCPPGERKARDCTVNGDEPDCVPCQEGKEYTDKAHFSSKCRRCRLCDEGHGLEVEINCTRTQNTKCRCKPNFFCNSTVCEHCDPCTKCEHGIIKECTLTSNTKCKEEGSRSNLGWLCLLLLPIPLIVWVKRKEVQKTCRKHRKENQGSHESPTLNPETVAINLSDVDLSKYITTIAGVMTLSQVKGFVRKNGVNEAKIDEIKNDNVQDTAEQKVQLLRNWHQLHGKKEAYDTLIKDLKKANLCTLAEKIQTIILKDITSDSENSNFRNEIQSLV

Turning to CH11 (antibody), the IC50 (ng/ml), PESMTS survival assay, ARH-77 cells (multiple myeloma) is > 10000 ng/mL; the IC50 (ng/ml), PESMTS survival assay, DOHH2 cells (follicular lymphoma) is > 10000 ng/mL; the IC50 (ng/ml), PESMTS survival assay, HL60 (AML-M3) cells is > 10000 ng/mL; the IC50 (ng/ml), PESMTS survival assay, Jurkat cells (acute T lymphoblastic leukemia) was 6.58 ng/mL. Also, the IC50 (ng/ml), PESMTS survival assay, K562 cells (chronic myeloid leukaemia) was > 10000 ng/mL; the IC50 (ng/ml), PESMTS survival assay, NB4 (AML-M3) cells is > 10000 ng/mL; the IC50 (ng/ml), PESMTS survival assay, Namalwa (ALL-L3) cells is > 10000 ng/mL; the IC50 (ng/ml), PESMTS survival assay, RPMI-8226 cells (multiple myeloma) was > 10000 ng/mL. Also, the IC50 (ng/ml), PESMTS survival assay, Raji (ALL-L3) cells was found to be 15.8 ng/mL; the IC50 (ng/ml), PESMTS survival assay, SC-I cells (follicular lymphoma) is > 10000 ng/mL; the IC50 (ng/ml), PESMTS survival assay, U266 cells (multiple myeloma) is > 10000 ng/mL.

Substance “MegaFasL (fusion polypeptide m or hACRP30:hFasL) (from UniProt P48023 103-281) (ligand)” registered an IC50 (ng/ml), PESMTS survival assay, ARH-77 cells (multiple myeloma) of 10.4 ng/mL; an IC50 (ng/ml), PESMTS survival assay, DOHH2 cells (follicular lymphoma) of 1.17 ng/mL; an IC50 (ng/ml), PESMTS survival assay, HL60 (AML-M3) cells of 213 ng/mL; an IC50 (ng/ml), PESMTS survival assay, Jurkat cells (acute T lymphoblastic leukemia) of 0.06 ng/mL. In addition, the IC50 (ng/ml), PESMTS survival assay, K562 cells (chronic myeloid leukaemia) was > 10000 ng/mL; the IC50 (ng/ml), PESMTS survival assay, NB4 (AML-M3) cells was determined as 16 ng/mL; the IC50 (ng/ml), PESMTS survival assay, Namalwa (ALL-L3) cells was determined as 57 ng/mL; the IC50 (ng/ml), PESMTS survival assay, OPM2 cells (multiple myeloma) turned out to be 2.19 ng/mL. Besides, the IC50 (ng/ml), PESMTS survival assay, RPMI-8226 cells (multiple myeloma) came out at 3.57 ng/mL; the IC50 (ng/ml), PESMTS survival assay, Raji (ALL-L3) cells stood at 5.6 ng/mL; the IC50 (ng/ml), PESMTS survival assay, SC-I cells (follicular lymphoma) was > 10000 ng/mL; the IC50 (ng/ml), PESMTS survival assay, U266 cells (multiple myeloma) came to 6.2 ng/mL.
